According to the Immune Epitope Database (IEDB):

How the values were obtained:
[1] = target: HLA-B*18:01; assay: IEDB peptide-MHC binding, purified MHC/competitive/radioactivity; filed as Kd, often an IC50 or EC50 that approximates it; ≥ and ≤ were set here for values at or beyond the usual limits of such assays
[2] = target: HLA-B*40:01; assay: as above
[3] = target: HLA-B*40:02; assay: as above
[4] = target: HLA-B*44:02; assay: as above
[5] = target: HLA-B*44:03; assay: as above
[6] = target: HLA-B*45:01; assay: as above
[7] = target: HLA-A*24:02; assay: IEDB peptide-MHC binding, purified MHC/competitive/fluorescence; ≥ and ≤ were set here for values at or beyond the usual limits of such assays
[8] = target: HLA-B*08:01; assay: as above
[9] = target: HLA-B*15:01; assay: as above
[10] = target: HLA-A*02:03; assay: IEDB peptide-MHC binding, purified MHC/direct/fluorescence; filed as Kd, often an IC50 or EC50 that approximates it; ≥ and ≤ were set here for values at or beyond the usual limits of such assays; conditions: source organism: Zaire ebolavirus
[11] = target: HLA-A*02:11; assay: as above; conditions: source organism: Zaire ebolavirus
[12] = target: HLA-A*02:12; assay: as above; conditions: source organism: Zaire ebolavirus
[13] = target: HLA-A*02:16; assay: as above; conditions: source organism: Zaire ebolavirus
[14] = target: HLA-A*02:19; assay: as above; conditions: source organism: Zaire ebolavirus
[15] = target: HLA-A*03:01; assay: as above; conditions: source organism: Zaire ebolavirus
[16] = target: HLA-A*24:03; assay: as above; conditions: source organism: Zaire ebolavirus
[17] = target: HLA-A*29:02; assay: as above; conditions: source organism: Zaire ebolavirus
[18] = target: HLA-A*68:02; assay: as above; conditions: source organism: Zaire ebolavirus
[19] = target: HLA-B*15:01; assay: as above; conditions: source organism: Zaire ebolavirus
[20] = target: HLA-A*02:01; assay: IEDB peptide-MHC binding, purified MHC/competitive/fluorescence; filed as Kd, often an IC50 or EC50 that approximates it; ≥ and ≤ were set here for values at or beyond the usual limits of such assays
[21] = target: HLA-A*26:01; assay: as above; conditions: source organism: Zaire ebolavirus
[22] = target: HLA-A*69:01; assay: as above; conditions: source organism: Zaire ebolavirus
[23] = target: HLA-B*15:17; assay: as above; conditions: source organism: Zaire ebolavirus
[24] = target: HLA-B*18:01; assay: as above; conditions: source organism: Zaire ebolavirus
[25] = target: HLA-B*27:03; assay: as above; conditions: source organism: Zaire ebolavirus
[26] = target: HLA-B*39:01; assay: as above; conditions: source organism: Zaire ebolavirus
[27] = target: HLA-B*46:01; assay: as above; conditions: source organism: Zaire ebolavirus
[28] = target: HLA-B*51:01; assay: as above; conditions: source organism: Zaire ebolavirus
[29] = target: HLA-B*57:01; assay: as above; conditions: source organism: Zaire ebolavirus
[30] = target: HLA-A*02:01; assay: IEDB peptide-MHC binding, purified MHC/competitive/fluorescence; ≥ and ≤ were set here for values at or beyond the usual limits of such assays
[31] = target: HLA-A*02:01; assay: IEDB peptide-MHC binding, purified MHC/competitive/radioactivity; filed as Kd, often an IC50 or EC50 that approximates it; ≥ and ≤ were set here for values at or beyond the usual limits of such assays
[32] = target: HLA-A*02:03; assay: as above
[33] = target: HLA-A*02:06; assay: as above
[34] = target: HLA-A*02:17; assay: as above
[35] = target: HLA-B*08:01; assay: as above; conditions: source organism: Dengue virus 2 Jamaica/1409/1983
[36] = target: HLA-B*15:01; assay: as above; conditions: source organism: Dengue virus 2 Jamaica/1409/1983
[37] = target: HLA-A*68:02; assay: as above; conditions: source organism: Dengue virus 4 Philippines/H241/1956
[38] = target: HLA-C*14:02; assay: IEDB peptide-MHC binding, purified MHC/direct/fluorescence; filed as Kd, often an IC50 or EC50 that approximates it; ≥ and ≤ were set here for values at or beyond the usual limits of such assays; conditions: source organism: Vibrio vulnificus YJ016
[39] = target: HLA-A*02:06; assay: IEDB peptide-MHC binding, purified MHC/competitive/fluorescence; filed as Kd, often an IC50 or EC50 that approximates it; ≥ and ≤ were set here for values at or beyond the usual limits of such assays; conditions: source organism: Vibrio vulnificus YJ016
[40] = source organism: Mammarenavirus lassaense
[41] = source organism: SARS coronavirus Tor2
[42] = source organism: Zaire ebolavirus
[43] = source organism: Mammarenavirus whitewaterense
[44] = source organism: Dengue virus 2 Jamaica/1409/1983
[45] = source organism: Dengue virus 4 Philippines/H241/1956
[46] = source organism: Mammarenavirus juninense
[47] = source organism: Lassa virus Josiah
[48] = source organism: Sudan ebolavirus
[49] = source organism: Mammarenavirus guanaritoense

FDAATTGSL
Kd [1, 40]: ≥ 38.9 µM | Kd [2, 40]: 16.6 µM | Kd [3, 40]: 2.29 µM | Kd [4, 40]: ≥ 22.2 µM | Kd [5, 40]: ≥ 44.6 µM | Kd [6, 40]: 14.4 µM

HEGHQTAAF
Kd [1, 41]: 4.27 µM | Kd [2, 41]: 2.98 µM | Kd [3, 41]: 2.81 µM | Kd [4, 41]: 1.12 µM | Kd [5, 41]: 4.75 µM | Kd [6, 41]: ≥ 26.2 µM

HQKKNEISF
IC50 [7, 42]: ≥ 116 µM | IC50 [8, 42]: 42.2 µM | IC50 [9, 42]: 6.66 µM | Kd [10]: ≥ 20 µM | Kd [11]: ≥ 20 µM | Kd [12]: ≥ 20 µM | Kd [13]: ≥ 20 µM | Kd [14]: ≥ 20 µM | Kd [15]: ≥ 20 µM | Kd [16]: ≥ 20 µM | Kd [17]: ≥ 20 µM | Kd [18]: ≥ 20 µM | Kd [19]: 0.233 µM | Kd [20, 42]: ≥ 20 µM | Kd [21]: ≥ 20 µM | Kd [22]: ≥ 20 µM | Kd [23]: ≥ 20 µM | Kd [24]: ≥ 20 µM | Kd [25]: ≥ 20 µM | Kd [26]: ≥ 20 µM | Kd [27]: ≥ 20 µM | Kd [28]: ≥ 20 µM | Kd [29]: ≥ 20 µM

HSQGREAAV
IC50 [30, 42]: ≥ 254 µM | IC50 [8, 42]: ≥ 172 µM

KEQYCALSPG
Kd [1, 41]: ≥ 70.5 µM | Kd [2, 41]: 4.67 µM | Kd [3, 41]: 0.831 µM | Kd [4, 41]: 2.61 µM | Kd [5, 41]: 3.46 µM | Kd [6, 41]: 0.259 µM

LEITDVTTL
Kd [1, 43]: 0.462 µM | Kd [2, 43]: 0.127 µM | Kd [3, 43]: 0.0801 µM | Kd [4, 43]: 0.0257 µM | Kd [5, 43]: 0.0618 µM | Kd [6, 43]: ≥ 77.7 µM

LMMATIGIAL
Kd [31, 44]: 0.0112 µM | Kd [32, 44]: 0.00892 µM | Kd [33, 44]: 0.0136 µM | Kd [34, 44]: 0.171 µM | Kd [35]: 0.398 µM | Kd [36]: 0.0065 µM

MMKDEPVVF
IC50 [30, 42]: ≥ 116 µM | IC50 [7, 42]: 0.218 µM | IC50 [8, 42]: ≥ 205 µM | IC50 [9, 42]: 8.81 µM

MVIGMAMTTV
Kd [31, 45]: 0.00936 µM | Kd [32, 45]: 0.00014 µM | Kd [33, 45]: 0.0053 µM | Kd [34, 45]: 0.132 µM | Kd [37]: 0.00327 µM

NFLIKFLLI
IC50 [30, 42]: ≥ 614 µM | IC50 [7, 42]: 0.0094 µM | IC50 [8, 42]: ≥ 1610 µM

PDSCLNGKL
Kd [1, 46]: ≥ 20.1 µM | Kd [2, 46]: ≥ 67.9 µM | Kd [3, 46]: ≥ 77.2 µM | Kd [4, 46]: ≥ 77.9 µM | Kd [5, 46]: ≥ 78.1 µM | Kd [6, 46]: ≥ 25.6 µM

RQIQGIAAF
Kd [38]: 2.62 µM | Kd ([20]; source organism: Vibrio vulnificus YJ016): 1.65 µM | Kd [39]: 0.0133 µM

SEAREHLKNG
Kd [1, 41]: ≥ 70.5 µM | Kd [2, 41]: ≥ 39.3 µM | Kd [3, 41]: 6.59 µM | Kd [4, 41]: ≥ 36.2 µM | Kd [5, 41]: ≥ 28.1 µM | Kd [6, 41]: 8.32 µM

SEGKDTPGGY
Kd [1, 47]: ≥ 59.6 µM | Kd [2, 47]: ≥ 25.4 µM | Kd [3, 47]: ≥ 70.8 µM | Kd [4, 47]: 1.45 µM | Kd [5, 47]: 1.75 µM | Kd [6, 47]: ≥ 70 µM

TEIEPKLDG
Kd [1, 41]: ≥ 77.5 µM | Kd [2, 41]: ≥ 76.2 µM | Kd [3, 41]: ≥ 74.8 µM | Kd [4, 41]: 17.9 µM | Kd [5, 41]: 13.4 µM | Kd [6, 41]: ≥ 28.6 µM

TMTLWYMWQV
Kd [31, 45]: 0.0288 µM | Kd [33, 45]: 0.0745 µM | Kd [34, 45]: 0.433 µM

TVIYRGVNF
IC50 [30, 48]: ≥ 790 µM | IC50 [7, 48]: 3.58 µM | IC50 [8, 48]: ≥ 88 µM | IC50 [9, 48]: 28.3 µM

YEERLNEQLL
Kd [1, 49]: 5.99 µM | Kd [2, 49]: 2.48 µM | Kd [3, 49]: 1.64 µM | Kd [4, 49]: ≥ 10 µM | Kd [5, 49]: 14.6 µM | Kd [6, 49]: ≥ 70 µM
